Results from patent US10428159B2, “Blocking monoclonal antibodies to AGR2 and its receptor C4.4A” (Board of Regents, The University of Texas System, priority 2014, dated 2019).

Experiments:
[1] = tested on: AsPC-1 cells; assay: Cell proliferation (MTS assay) with rAGR2; format: cell-based; conditions: AsPC-1, rAGR2 0-500 nM, concentration-dependent
Experimental: (§1) Cell growth, migration, invasion and apoptosis assays. Wild-type and siRNA transfected PDAC cells were grown with rAGR2 (0-500 nM) in the presence and absence of antibodies (polyclonal commercial or newly developed mAbs) (1 μM). The medium was refreshed daily. Cell numbers were estimated after 48 h by MTS assay as described previously (Ramachandran et al., 2007). In order to avoid the differences in basal values for each cell line, the data are presented as the percent of viable cells compared to the appropriate controls. Migration and invasion assays were conducted at 24 h as described previously (Ramachandran et al., 2007). Apoptosis assays were conducted 72 h after adding Gemcitabine (Gem) to Gem-sensitive BxPC-3 cells (1 μM) and Gem-resistant AsPC-1 cells (5 μM) (Arumugam et al., 2009) as described previously (Ramachandran et al., 2008). Because siRNA transfection itself induced basal apoptosis, cells transfected with siRNAs were treated with a lower concentration of Gem (BxPC3: 0.5 μM; AsPC-1: 1 μM).

[2] = tested on: AsPC-1 cells; assay: Migration assay with rAGR2; format: cell-based; conditions: AsPC-1, rAGR2 0-500 nM
Experimental: as §1

[3] = tested on: AsPC-1 cells; assay: Invasion assay with rAGR2; format: cell-based; conditions: AsPC-1, rAGR2 0-500 nM
Experimental: as §1

[4] = tested on: AsPC-1 cells; assay: Apoptosis assay (Gem, rAGR2, antibodies); format: cell-based
Experimental: FIGS. 11A-D. Monoclonal antibodies developed bind respectively to AGR2 and C4.4A proteins and blocked their functions. From the endogenous lysate (SU86.86/Panc-1), AGR2 (18 kD) and C4.4A (50 kD) were identified by a panel of mAbs. […] Extra bands identified with the endogenous protein were re-confirmed with the recombinant protein. For apoptosis studies, AsPC-1 cells were treated without or with Gem (0.5 μM) and rAGR2 (100 nM) and with purified (A) AGR2 and (B) C4.4A Abs (1 μM). Commercially available Abs served as control. […] Horizontal line represents median apoptotic value. Data shown are mean±SE for 3 experiments (*p<0.05). (C,D) Binding assays were conducted with purified (C) AGR2 and (D) C4.4A Abs as selected from the apoptosis assay as having high blocking efficiency. ELISA assays were conducted by coating antigenic peptide (0.5 μg) and probed with respective purified Abs. Data shown are mean±SE for 3 experiments (*p <0.05). Based on high specificity and binding, clone 28B for AGR2 and 1A for C4.4A were selected. Purified Abs were also run on 4-20% gradient gel to check for the presence of heavy (50 kD) and light chains (25 kD).
(§2) Cell growth, migration, invasion and apoptosis assays. Wild-type and siRNA transfected PDAC cells were grown with rAGR2 (0-500 nM) in the presence and absence of antibodies (polyclonal commercial or newly developed mAbs) (1 μM). The medium was refreshed daily. […]

[5] = tested on: BxPC-3 cells; assay: Cell proliferation with rAGR2; format: cell-based; conditions: BxPC-3, rAGR2 dose-dependent
Experimental: (§3) FIGS. 7A-D. Extracellular rAGR2-mediated functions. (A) Pancreatic cancer cells (BxPC-3 and MiaPaCa-2) were used for these studies. Extracellular addition of rAGR2 caused a significant dose-dependent increase in proliferation (BxPC-3-3-fold increase; MiaPaCa-2-4-fold increase; p<0.05). Pancreatic cancer cells were plated (2×10^4 cells) with and without rAGR2 (0-100 nM) on a Boyden's chamber for migration studies (B) and on an invasion chamber for invasion studies (C). After 22 h, cells were fixed with methanol and stained by hematoxylin, and cells in 10 random fields at 100× magnification were photographed and counted. Extracellular addition of rAGR2 caused a significant dose-dependent increase in migration (BxPC-3-7-fold increase; MiaPaCa-2-3-fold increase) and invasion (BxPC-3-10-fold increase; MiaPaCa-2-3-fold increase). (D) For analysis of apoptosis, BxPC-3 cells were treated with and without Gem (1 μM) and AGR2 (100 nM). […] Data shown are mean±SE for 3 experiments (*p<0.05 vs. control).
as §2, with “daily. Cell numbers were estimated after 48 h by MTS assay as described previously (Ramachandran et al., 2007).” for “daily.”

[6] = tested on: MiaPaCa-2 cells; assay: Cell proliferation with rAGR2; format: cell-based; conditions: MiaPaCa-2, rAGR2 dose-dependent
Experimental: as §3
as §2, with “daily. Cell numbers were estimated after 48 h by MTS assay as described previously (Ramachandran et al., 2007).” for “daily.”

[7] = tested on: BxPC-3 cells; assay: Migration (Boyden's chamber) with rAGR2; format: cell-based; conditions: BxPC-3, rAGR2 0-100 nM, 22 h
Experimental: as §3
as §2, with “daily. Cell numbers were estimated after 48 h by MTS assay as described previously (Ramachandran et al., 2007).” for “daily.”

[8] = tested on: MiaPaCa-2 cells; assay: Migration (Boyden's chamber) with rAGR2; format: cell-based; conditions: MiaPaCa-2, rAGR2 0-100 nM, 22 h
Experimental: as §3
as §2, with “daily. Cell numbers were estimated after 48 h by MTS assay as described previously (Ramachandran et al., 2007).” for “daily.”

[9] = tested on: BxPC-3 cells; assay: Invasion chamber assay with rAGR2; format: cell-based; conditions: BxPC-3, rAGR2 0-100 nM, 22 h
Experimental: as §3
as §2, with “daily. Cell numbers were estimated after 48 h by MTS assay as described previously (Ramachandran et al., 2007).” for “daily.”

[10] = tested on: MiaPaCa-2 cells; assay: Invasion chamber assay with rAGR2; format: cell-based; conditions: MiaPaCa-2, rAGR2 0-100 nM, 22 h
Experimental: as §3
as §2, with “daily. Cell numbers were estimated after 48 h by MTS assay as described previously (Ramachandran et al., 2007).” for “daily.”

[11] = tested on: BxPC-3 cells; assay: Apoptosis assay (Gem, rAGR2); format: cell-based; conditions: BxPC-3, Gem 1 μM, AGR2 100 nM
Experimental: as §3
as §2, with “daily. Cell numbers were estimated after 48 h by MTS assay as described previously (Ramachandran et al., 2007).” for “daily.”

[12] = tested on: PDAC cell; assay: Blocking of basal and AGR2-stimulated PDAC cell migration by antibodies; format: cell-based; conditions: antibodies 1 μM, compared to non-specific antibody
Experimental: as §1
Blocking monoclonal antibody development. Mouse monoclonal antibodies (mAbs) against AGR2 and C4.4A were developed in the Monoclonal Antibody Core of UT MDACC using unconjugated antigenic peptides. Several hybridoma colonies (2400 for each antibody) were screened for target recognition by ELISA using KLH-conjugated peptides. […]

[13] = tested on: Capan-2 cells; assay: Model 2 Capan-2 stromal model, orthotopic tumors; format: in vivo, athymic nude mice
Experimental: (§4) In vivo studies. In vivo experiments were conducted with athymic nude mice (B6.Cg-Foxn1^nu/J—female—age 9 weeks) (NCI, Bethesda, Md.) according to the UT MDACC regulatory standards and IUCAC committee approval. Orthotopic tumors were developed with luciferase-labeled cells (0.25×10^6). IgG (Cat #OB010701; Southern Biotech, Birmingham, Ala.) served as a control Ab.

[14] = tested on: Capan-2 cells; assay: Model 3 Capan-2 regression studies, orthotopic tumors; format: in vivo, athymic nude mice; conditions: 15 mg/kg single mAb or 7.5 mg each in combination, twice a week i.p.
Experimental: Immunohistochemical (IHC) staining. […] Results were blindly evaluated by a pathologist and expression levels were categorized as positive or negative (cytoplasmic staining of >10% or <10% of the tumor cells, respectively) and staining intensity as strong, moderate, or no staining. Apoptotic cells were detected in paraffin sections by fluorescence-labeled TUNEL staining (Promega, Cat #G3250).
as §4
Tumor growth and metastasis were measured weekly with the IVIS® live animal bioluminescence imaging system after injecting luciferin substrate (Xenogen, Alameda, Calif.). The number of mice surviving was recorded each week and shown as the percent of the original group size.

Row | Molecule | increased proliferation [1] | increased migration [2] | increased invasion [3] | reduction of the effect of Gem (apoptosis) ([4]; AsPC-1, simultaneous rAGR2 with 5 μM Gem) | increase in proliferation [5] | increase in proliferation [6] | increase in migration [7] | increase in migration [8] | increase in invasion [9] | increase in invasion [10] | reduction of Gem induced apoptosis [11] | AGR2-mediated survival effects (Gem-induced apoptosis) ([4]; AsPC-1, Gem, rAGR2 100 nM, Abs 1 μM) | basal and AGR2-mediated stimulation in migration [12] | Median survival ([13]; 15 mg/kg twice a week i.p.) | mice surviving ([13]; at nine weeks (seven weeks of treatment), when all control Ab mice had died, 15 mg/kg twice a week i.p.) | mice with complete tumor regression ([13]; bioluminescence imaging, confirmed by surgical examination) | reduction of tumor volume ([13]; compared to control Ab, bioluminescence) | mice surviving after week 63 ([13]; treatment stopped after 15 weeks, no evidence of tumor) | Median survival times [14]
1 | rAGR2: human recombinant AGR2 protein (ab64013, AbCam) (protein) RDTTVKPGAKKDTKDSRPKLPQTLSRGWGDQLIWTQTYEEALYKSKTSNKPLMIIHHLDECPHSQALKKVFAENKEIQKLAEQFVLLNLVYETTDKHLSPDGQYVPRIMFVDPSLTVRADITGRYSNRLYAYEPADTALLLDNMKKALKLLKTEL | 3 fold | 10 fold | 3 fold | > 50% | 3 fold | 4 fold | 7 fold | 3 fold | 10 fold | 3 fold | 50% |  |  |  |  |  |  |  | 
2 | 162-1A-1: mouse monoclonal blocking antibody against C4.4A, IgG2b/kappa, VH SEQ ID NO: 10, VL SEQ ID NO: 11 (antibody, V domains shown) VH: MNFGLSLIFLVLILKGVQCEVMLVESGGGLVKPGGSLKLSCAASGFTFSSYTMSWVRQTPEKRLEWVASISSGGGNTYYADSVKGRFTMSRDNAKNNLYLQMSSLRSEDTALYYCARSYYYGISYDTYWGQGTLVTVSA VL: MKLPVRLLVLMFWIPASNSDVVMTQTPLSLPVSLGDQASISCRSSQNLVHSDGNTYLHWYLQKPGQSPKLLIYKVSNRFSGVPDRFSGSGSGTDFTLKISRVEAEDLGVYFCSQSTHVPYTFGGGTKLEIK |  |  |  |  |  |  |  |  |  |  |  | abolished | abolished | 10 weeks | 57% | 3/7 | 50% | one | 12 weeks
